We go through one molecule from US8703698B2, “Compositions and methods for treating atherosclerosis” (The University of Chicago, priority 2003, dated 2014).

Data set [1] has as its system cholesterol ester hydrolase. Briefly: Rate of hydrolysis of cholesteryl ester in cholesterol-laden J774 cells (cholesterol ester hydrolase activity). It counts as cell-based, murine. Conditions: lipoproteins or protein liposomes; tissue culture. The procedure:
Identification of the domain of SAA2.1 that is responsible for enhancing cholesterol ester hydrolase activity was performed in J774 cells preloaded with radio-labeled cholesteryl esters. These experiments were performed in the presence of Sandoz 58-035, an inhibitor of acyl CoA:cholesterol acyl transferase activity, to prevent re-esterification of liberated cholesterol and [^14C]oleate. Incubations proceeded for times ranging from 0 to 24 hours, following which the remaining quantities of [^14C]-labeled cholesteryl oleate in cells were measured to determine the rate of hydrolysis of cholesteryl ester. […] However, an equivalent amount of liposomes containing the synthetic peptide corresponding to amino acid residues 74-103 of murine SAA2.1 caused a 3-fold increase in cholesterol ester hydrolase activity in these cholesterol-laden murine cells. Newly confluent J774 cells were labeled with [^14C]-oleate during cholesterol loading with red blood cell membranes as described above. Cells were then incubated for up to 24 hours with 2 mL of DMEM containing 5% LPDS and 50 μg/mL of either native HDL, SAA-HDL, liposomes containing 2 μmoles of apoA-1, SAA1.1 or 2.1, or liposomes containing 0.5:mol synthetic peptides corresponding to amino acid residues 1-20 (SEQ ID NO:1), 21-50 (SEQ ID NO:2), 51-80 (SEQ ID NO:3) and 74-103 (SEQ ID NO:4) of murine SAA2.1. To determine the rate of cholesteryl ester hydrolysis, 2 μg/mL of the acyl CoA:cholesterol acyl transferase inhibitor Sandoz 58-035 (propanimide, 3-(decyldimethylsilyl)-N-[2-(4-methylphenyl)-1-phenylethyl]-(9Cl) was added during incubation with lipoproteins or liposomes to prevent […] and free cholesterol. To examine whether or not the rate of cholesteryl ester hydrolysis involved the lysosomal cholesteryl ester hydrolase, the cells were cultured in the presence of 50 μg/mL of either native HDL and chloroquine or SAA-HDL and chloroquine (100:M). Chloroquine is an agent that neutralizes the lysosomal proton gradient. At various time points, cellular lipids were extracted and analyzed for cholesteryl ester radioactivity as described above.

Data set [2] deals with J774 macrophages. Conditions: Tam et al. 2002; cited from earlier work.
The target of data set [3] is T1, acyl CoA:cholesterol acyl transferase (Mus musculus, UniProt Q61263).
T1 construct: host or cells: J774 mouse macrophages, cholesterol-loaded
T1 sequence (Q61263 1-540): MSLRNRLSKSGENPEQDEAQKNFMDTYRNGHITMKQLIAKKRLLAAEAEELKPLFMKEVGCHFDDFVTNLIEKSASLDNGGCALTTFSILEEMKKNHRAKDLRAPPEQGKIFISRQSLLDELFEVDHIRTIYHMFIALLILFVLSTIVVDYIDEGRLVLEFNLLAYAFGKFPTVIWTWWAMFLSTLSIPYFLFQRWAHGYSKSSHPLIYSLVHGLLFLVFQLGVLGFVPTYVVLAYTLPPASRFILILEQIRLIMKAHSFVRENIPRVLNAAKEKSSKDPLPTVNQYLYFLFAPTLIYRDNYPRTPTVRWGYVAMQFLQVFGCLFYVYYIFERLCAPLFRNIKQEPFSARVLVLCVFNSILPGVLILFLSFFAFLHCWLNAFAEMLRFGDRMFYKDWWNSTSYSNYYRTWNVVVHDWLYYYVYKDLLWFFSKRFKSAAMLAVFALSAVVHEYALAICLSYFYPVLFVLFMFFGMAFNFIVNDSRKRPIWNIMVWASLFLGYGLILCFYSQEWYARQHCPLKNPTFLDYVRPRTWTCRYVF
Briefly: Incorporation of [14C]oleate into cholesteryl ester in cholesterol-laden macrophages (ACAT activity). It counts as cell-based, murine. Conditions: lipoproteins or protein liposomes; tissue culture. The procedure:
The incorporation of [^14C]oleate into cholesteryl ester was used as a measure of acyl CoA:cholesterol acyl transferase activity to identify compositions inhibiting the enzyme activity. The relative acyl CoA:cholesterol acyl transferase activity was determined in cholesterol-laden murine cells that had been cultured in medium in the absence of liposomes or in the presence of protein-free liposomes or liposomes containing 0.5 μM synthetic peptides corresponding to amino acids 1-20, 21-50, 51-80 and 74-103 of murine SAA2.1.
To load the cells with cholesterol, nearly confluent mono-layers were washed 3 times with phosphate buffered saline containing 2 mg/mL fatty acid-free bovine serum albumin (PBS-BSA) and incubated for 5 hours in DMEM supplemented with 5% lipoprotein-depleted serum (LPDS) (d>1.25 g/mL) and 175 μg of red blood cell membrane cholesterol. For the purpose of pool equilibration of added cholesterol, cell cultures were rinsed twice with PBS-BSA and incubated overnight in DMEM containing 5% LPDS. The relative activity of acyl CoA:cholesterol acyl transferase was determined in cholesterol-laden cells that had been cultured in medium containing no liposomes, protein-free liposomes or liposomes containing 0.5:M synthetic peptides corresponding to amino acid residues 1-20 (SEQ ID NO:1), 21-50 (SEQ ID NO:2), 51-80 (SEQ ID NO:3) or 74-103 (SEQ ID NO:4) of murine SAA2.1, respectively. Following 3 hours incubation with the above media, [^14C]-oleate was added and the cells were incubated for another 3 hour period (Mendez et al. J. Clin. Invest. 1994 94:1698-1705; Oram et al. Arterioscler. Thromb. 1991 11:403-414). Cells were chilled on ice and washed twice with PBS-BSA and twice with PBS. After addition of [^3H]-cholesteryl oleate (6000 dpm/well) as an internal standard, the lipids were extracted from the labeled cells and analyzed by thin-layer chromatography as described by Mendez et al. (J. Clin. Invest. 1994 94:1698-1705) and Oram et al. (Arterioscler. Thromb. 1991 11:403-414). The radioactivity in appropriate spots was measured to determine the incorporation of radioactivity into cholesteryl esters as a measure of acyl CoA:cholesterol acyl transferase activity.

Data set [4] has as its system J774 macrophages. Briefly: Cholesterol efflux from cholesterol-laden J774 macrophages to apolipoprotein liposomes with 8-bromo-cAMP or methyl-β-cyclodextrin. It counts as cell-based, mouse. The text has this: The export process of cholesterol is coupled to the ATP binding cassette transporter (ABCA1) pathway. Lipid efflux to apolipoproteins has been shown previously to be stimulated by treatment of murine macrophages with cAMP analogues (Lin et al. 2002 Biochem Biophys Res. Commun. 290:663-669; Oram et al. 2000 J. Biol. Chem. 275:34508-34511). Also, the expression of ABCA1 is induced by cAMP treatment (Lin et al. 2002 Biochem Biophys Res. Commun. 290:663-669; Oram et al. 2000 J. Biol. Chem. 275:34508-34511). The inventors herein examined the effect of 8-bromo-cAMP (0.3 mM) on cholesterol efflux by liposomes containing various apolipoproteins when incubated with cholesterol-laden J774 macrophages. Such cells were pre-labeled with [^3H]-cholesterol in the presence of Sandoz 58-035, an ACAT inhibitor, to ensure that all of the radiolabeled cholesterol released from the cells was derived from the un-esterified cholesterol pool, and the cells were treated for 12 hours with 8-bromo-cAMP. This was followed by incubation with various acceptors. The fractional release of cellular labeled cholesterol was determined as a function of time.
To investigate whether an apolipoprotein free cholesterol acceptor such as cyclodextrin has the ability to catalyze the removal of cholesterol from macrophages, cholesterol-loaded and labeled J774 cells were incubated with liposomes and methyl-β-cyclodextrin (0.1 mM) (CD).
To examine whether cholesterol export from J774 cells to medium containing liposomes containing 2 μM murine apoA-1, SAA1.1 or SAA2.1 is a cAMP-dependent process, the radio-labeled cholesterol-laden cells were incubated overnight with 8-Br-cAMP (0.3 mM), prior to the addition of liposomes containing 2 μM murine apoA-1, SAA1.1 or SAA2.1 to the culture medium. Cholesterol efflux to the medium was then determined at the indicated time points as described above. Efflux of radioactive label to the medium was calculated as a percentage of total counts in each well.

Data set [5] deals with T1, acyl CoA:cholesterol acyl transferase. Briefly: ACAT activity in macrophage post-nuclear homogenates. It counts as biochemical, murine. Conditions: macrophage post-nuclear homogenates as enzyme source. The text has this:
The in vitro effects of acute phase-HDL (AP-HDL;HDL-SAA) on acyl CoA:cholesterol acyl transferase and cholesterol ester hydrolase activities and on cellular cholesterol export were studied by the inventors using purified enzymes, cell homogenates, and whole cells. […] In contrast, murine SAA1.1 and apoA-1 had no effect. […] Using macrophages preloaded with radio-labeled cholesterol and injected intravenously into either inflamed or un-inflamed mice, it was shown that the inflamed mice, which have high SAA2.1 levels, effluxed cholesterol more rapidly and to a greater extent (6-fold greater) than their un-inflamed counterparts.

B1: GFFSFIGEAFQGAGDMWRAYTDMKEAGWKDGDKYFHARGNYDAAQRGPGGVWAAEKISD ARESFQEFFGRGHEDTMADQEANRHGRSGKDPNYYRPPGLPAKY (protein, listed as Mus musculis)
chain: GFFSFIGEAFQGAGDMWRAYTDMKEAGWKDGDKYFHARGNYDAAQRGPGGVWAAEKISDARESFQEFFGRGHEDTMADQEANRHGRSGKDPNYYRPPGLPAKY
notes: full length murine serum amyloid A isoform 1.1
On to B1, for which the “cholesterol ester hydrolase activity in intact cholesterol-laden macrophages” value in data set [1] was “no effect on enzyme activities”. Also, the “promotion of cholesterol efflux from cholesterol-laden macrophages compared to protein-free liposomes” value in the data set with J774 macrophages [2] is recorded as “not any more effective than protein-free liposomes”. Also, in data set [3], the “acyl CoA:cholesterol acyl transferase activity in intact cholesterol-laden macrophages” value is listed as “no effect on enzyme activities”. In addition, the “stimulation of cholesterol efflux to liposomes with or without cAMP pre-treatment” value with J774 macrophages [4] (8-bromo-cAMP 0.3 mM) is reported as “No stimulation of efflux”. In addition, the “increase in the initial rate of cholesterol efflux with CD treatment” value in the data set with J774 macrophages [4] (methyl-β-cyclodextrin 0.1 mM plus liposomes) is “not”. In addition, in data set [5], the “acyl CoA:cholesterol acyl transferase activity” value is reported as “had no effect”.
